B1: E3 subunit (dihydrolipoyl dehydrogenase) of native 2-oxoglutarate dehydrogenase complex from Sus scrofa heart (natural protein)
chain: ADQPIDADVTVIGSGPGGYVAAIKAAQLGFKTVCIEKNETLGGTCLNVGCIPSKALLNNSHYYHMAHGKDFASRGIEMSEVRLNLEKMMEQKSNAVKALTGGIAHLFKQNKVVRVNGYGKITGKNQVTATKADGSTEVINTKNILIATGSEVTPFPGITIDEDTVVSSTGALSLKKVPEKMVVIGAGVIGVELGSVWQRLGADVTAVELLGHVGGIGIDMEVSKNFQRILQKQGFKFKLNTKVIGATKKSDGNIDVSIEAASGGKAEVITCDVLLVCIGRRPFTQNLGLEELGIELDPRGRIPVNTRFQTKIPNIYAIGDVVAGPMLAHKAEDEGIICVEGMAGGAVHIDYNCVPSVIYTHPEVAWVGKSEEQLKEEGIEYKVGKFPFAANSRAKTNADTDGMVKILGQKSTDRVLGAHIIGPGAGEMINEAALALEYGASCEDIARVCHAHPTLSEAFREANLAASFGKAINF

Tests used:
[1] = molecular target: E1o (S. scrofa full-length E1o, GST tag cut off) (S. scrofa); test: SPR
[2] = molecular target: the molecule itself; test: cryo-electron tomography with subtomogram averaging

| Molecule | Kd [1] | binding result [2] |
| --- | --- | --- |
| E3 (S. scrofa full-length E3, GST tag cut off) (from UniProt P09623 36-509) (natural protein) | 1.84 µM |  |
| B1 |  | binds |

Reference: publication PMC11436768 (Nature Communications, 2024)
